# Test results as given in patent US20240181022A1, “AMURINS LYSINS, AND LYSIN-ANTIMICROBIAL PEPTIDE (AMP) CONSTRUCTS ACTIVE AGAINST GRAM-NEGATIVE BACTERIA” (priority 2021, published 2024).
# Like-named read-outs stand apart in the source and are kept apart here.
# B1: GN370: lysin-AMP construct, SEQ ID NO: 149: MIDR, FIRL and NPTH moieties N-terminal to GN202 lysin (protein)
# chain: MIDRFIRLNPTHGPRRPRRPGRRAPVRTSQRGIDLIKSFEGLRLSAYQDSVGVWTIGYGTTRGVTRYMTITVEQAERMLSNDIQRFEPELDRLAKVPLNQNQWDALMSFVYNLGAANLASSTLLDLLNKGDYQGAADQFPHWVNAGGKRLDGLVKRRAAERALFLEPLS
# modifications: GN370 lysin
# How the values were obtained:
# A. xylosoxidans [1] = test: Time-kill assay in cystic fibrosis patient sputum, A. xylosoxidans; type: cell-based, Achromobacter xylosoxidans
# Description: Sputum from 5 cystic fibrosis patients was pooled. The resulting mixture was not filtered, as it was very dense and not amenable to sterilization by filtration. Sputum is known to be a complex mixture of DNA, carbohydrates, and lipids ([…], 2016). As used herein, the term “sputum” refers to the mucus present in the respiratory tract of an animal, such as a human. Sputum may increase in thickness due to the irritation or infection, including bacterial infection, and in some instances, may be expelled by the animal while coughing. In certain instances, cystic fibrosis may be characterized by the presence of a thick, sticky mucus or sputum present in the lungs of cystic fibrosis patients. The activity of GN370, AM1, AM2, AM3, and meropenem was determined in the sputum using a time-kill assay format as disclosed in Zhang et al., Antimicrobial peptide therapeutics for cystic fibrosis, Antimicrobial Agents Chemother. 2005; 49(7):2921-2927. […] Untreated controls were included in addition to pretreatment plating (t=0) for a baseline CFU determination. Activity was also determined in the absence of sputum for comparison to activity observed in the presence of sputum.
# B. multivorans [2] = test: MIC by broth microdilution against B. multivorans; type: cell-based, Burkholderia multivorans; conditions: B. multivorans isolates
# Protocol: (§1) MIC values were determined using a modification of the standard broth microdilution reference method defined by the Clinical and Laboratory Standards Institute (CLSI), CLSL. 2015. Methods for Dilution Antimicrobial Susceptibility Tests for Bacteria That Grow Aerobically; Approved Standard-10th Edition. Clinical and Laboratory Standards Institute, Wayne, PA. The modification was based on the replacement of Mueller Hinton Broth with either CAA media (with and without NaCl) or CAA supplemented with 2.5% human serum. MIC is the minimum concentration of peptide sufficient to suppress at least 80% of the bacterial growth compared to control.
# (§2) Based on these nine most prevalent strains, direct lytic agents, including GN370, AM1, AM2, and AM3, were evaluated against various isolates from each of the 9 strains. MICs and MBECs (Example 3) were determined, and a sputum inhibition test was conducted, as described below in Example 5.
# (§3) The MICs for were determined as described below using the broth microdilution method for meropenem, GN370, AM1, AM2, and AM3. The results are shown below in Tables 8-12.
# S. maltophilia [3] = conditions: for MIC: S. maltophilia test organism of the sputum time-kill assay
# A. ruhlandii = test: MIC by broth microdilution against A. ruhlandii; type: cell-based, Achromobacter ruhlandii; conditions: A. ruhlandii isolates
# Protocol: as §1, §2, §3
# P. apista = test: MIC by broth microdilution against P. apista; type: cell-based, Pandoraea apista
# Protocol: as §1, §2, §3
# B. multivorans [4] = conditions: B. multivorans (15); 2-hour treatment
# Protocol: (§4) Biofilms are then washed and treated with e.g., a 2-fold dilution series of the lysin in TSBg at e.g., 37° C. for 24 hours. After treatment, wells are washed, air-dried at e.g., 37° C. and stained with e.g., 0.05% crystal violet for 10 minutes.
# (§5) The antibiofilm activity of GN370, AM1, AM2, and AM3 was evaluated against various Gram-negative bacteria prevalent in cystic fibrosis patients, including P. aeruginosa, S. maltophilia, and A. xylosoxidans.
# (§6) The MBEC (after 2-hour treatments) was determined as described in Jones and Wozniak, PsI Produced by Mucoid Pseudomonas aeruginosa Contributes to the Establishment of Biofilms and Immune Evasion, Am. […] Microbiol.
# A. xylosoxidans [5] = conditions: A. xylosoxidans (15); 2-hour treatment
# Protocol: as §4, §5, §6
# S. maltophilia [6] = tested on: S. maltophilia
# Protocol: as §4, §5, §6
# B. cenocepacia = type: cell-based, Burkholderia cenocepacia; conditions: B. cenocepacia (15); 2-hour treatment
# Protocol: The MBEC (after 2-hour treatments) was determined as described in Jones and Wozniak, PsI Produced by Mucoid Pseudomonas aeruginosa Contributes to the Establishment of Biofilms and Immune Evasion, Am. Soc. Microbiol. 2017, 8(3):e00864-17. Meropenem and tobramycin were included as controls and were both poorly active, with MBEC90 values of >256 μg/mL (data not shown).
# [7] = S. maltophilia (26), 2-hour treatment
# [8] = MDR S. maltophilia isolates (n = 8)
# [9] = Stenotrophomonas maltophilia, N 12 (Table 26)
# [10] = carbapenem-resistant S. maltophilia isolates (n = 21)
# [11] = Pandoraea apista, N 11 (Table 26)
molecule,measurement,setting,value
"C[C@@H](O)[C@H]1C(=O)N2C(C(=O)O)=C(S[C@@H]3CN[C@H](C(=O)N(C)C)C3)[C@H](C)[C@H]12 [meropenem, reference compound]",activity in the presence and absence of sputum,A. xylosoxidans [1],poorly active
same,Log10 CFU/mL of sputum,"A. xylosoxidans [1]; absence of sputum, 1 hr",4.9 Log10 CFU/mL of sputum
same,Log10 CFU/mL of sputum,"A. xylosoxidans [1]; absence of sputum, 3 hr",5.3 Log10 CFU/mL of sputum
same,Log10 CFU/mL of sputum,"A. xylosoxidans [1]; absence of sputum, 24 hr",7.3 Log10 CFU/mL of sputum
same,Log10 CFU/mL of sputum,"A. xylosoxidans [1]; presence of 10% sputum, 1 hr",4.78 Log10 CFU/mL of sputum
same,Log10 CFU/mL of sputum,"A. xylosoxidans [1]; presence of 10% sputum, 3 hr",4.3 Log10 CFU/mL of sputum
same,Log10 CFU/mL of sputum,"A. xylosoxidans [1]; presence of 10% sputum, 24 hr",7.56 Log10 CFU/mL of sputum
same,MIC50,B. multivorans [2],8 mg/L
same,MIC90,B. multivorans [2],32 mg/L
same,MIC50,S. maltophilia [3]; S. maltophilia isolates,> 32 mg/L
same,MIC90,S. maltophilia [3]; S. maltophilia isolates,> 32 mg/L
same,MIC,S. maltophilia [3],Meropenem (MIC = 32)
same,MIC50,A. ruhlandii,16 mg/L
same,MIC90,A. ruhlandii,> 32 mg/L
same,MIC50,P. apista; P. apista isolates,> 32 mg/L
same,MIC90,P. apista; P. apista isolates,> 32 mg/L
same,MIC Range,P. apista; P. apista isolates,> 32 mg/L
B1,effect of sputum on antibacterial activity,A. xylosoxidans [1]; 10% CF sputum vs no sputum,"none of GN370, AM1, AM2, and AM3 was inhibited"
same,Log10 CFU/mL of sputum,"A. xylosoxidans [1]; absence of sputum, 1 hr",3.7 Log10 CFU/mL of sputum
same,Log10 CFU/mL of sputum,"A. xylosoxidans [1]; absence of sputum, 3 hr",3.3 Log10 CFU/mL of sputum
same,Log10 CFU/mL of sputum,"A. xylosoxidans [1]; absence of sputum, 24 hr",2.3 Log10 CFU/mL of sputum
same,Log10 CFU/mL of sputum,"A. xylosoxidans [1]; presence of 10% sputum, 1 hr",3.6 Log10 CFU/mL of sputum
same,Log10 CFU/mL of sputum,"A. xylosoxidans [1]; presence of 10% sputum, 3 hr",3.3 Log10 CFU/mL of sputum
same,Log10 CFU/mL of sputum,"A. xylosoxidans [1]; presence of 10% sputum, 24 hr",2.3 Log10 CFU/mL of sputum
same,CFU reduction by 3 hours,A. xylosoxidans [1]; time-kill,~2 log10
same,CFU reduction by 24 hours,A. xylosoxidans [1]; time-kill,> 3 log10
same,MIC50,B. multivorans [2],16 mg/L
same,MIC90,B. multivorans [2],> 32 mg/L
same,MBEC50,B. multivorans [4],8 µg/mL
same,MBEC90,B. multivorans [4],64 µg/mL
same,MBEC50,A. xylosoxidans [5],8 µg/mL
same,MBEC90,A. xylosoxidans [5],>256 µg/mL
same,antibiofilm activity (MBEC) against S. maltophilia,S. maltophilia [6]; 2-hour treatments,highly active
same,MBEC50,S. maltophilia [6]; [7],1 µg/mL
same,MBEC90,S. maltophilia [6]; [7],2 µg/mL
same,MBEC Range,S. maltophilia [6]; [7],0.064-4 ^ μg/mL
same,MIC50,S. maltophilia [3]; [8],0.25 mg/L
same,MIC90,S. maltophilia [3]; [8],0.5 mg/L
same,MIC Range,"S. maltophilia [3]; MDR S. maltophilia isolates (n = 8), in µg/mL",0.0625-0.5
same,MIC50,S. maltophilia [3]; S. maltophilia isolates,0.5 mg/L
same,MIC90,S. maltophilia [3]; S. maltophilia isolates,2 mg/L
same,MIC Range,"S. maltophilia [3]; S. maltophilia isolates, in µg/mL",0.03-2
same,MIC,S. maltophilia [3],GN370 (MIC = 0.5)
same,MIC50,S. maltophilia [3]; [9],2 mg/L
same,MIC90,S. maltophilia [3]; [9],8 mg/L
same,MIC Range,S. maltophilia [3]; [9],0.25 to 8 µg/mL
same,GN370 MIC,S. maltophilia [3]; XDR S. maltophilia isolate AU29729,1 mg/L
same,GN370 MIC,S. maltophilia [3]; XDR S. maltophilia isolate AU29873,0.5 mg/L
same,GN370 MIC,S. maltophilia [3]; XDR S. maltophilia isolate AU30243,1 mg/L
same,GN370 MIC,S. maltophilia [3]; XDR S. maltophilia isolate AU30793,1 mg/L
same,GN370 MIC,S. maltophilia [3]; XDR S. maltophilia isolate AU32079,0.03125 mg/L
same,GN370 MIC,S. maltophilia [3]; XDR S. maltophilia isolate AU33199,0.0625 mg/L
same,GN370 MIC,S. maltophilia [3]; XDR S. maltophilia isolate AU33860,2 mg/L
same,GN370 MIC,S. maltophilia [3]; XDR S. maltophilia isolate AU33921,2 mg/L
same,GN370 MIC,S. maltophilia [3]; XDR S. maltophilia isolate AU34723,2 mg/L
same,GN370 MIC,S. maltophilia [3]; XDR S. maltophilia isolate AU35419,2 mg/L
same,GN370 MIC,S. maltophilia [3]; XDR S. maltophilia isolate AU35661,0.0625 mg/L
same,GN370 MIC,S. maltophilia [3]; XDR S. maltophilia isolate AU36631,0.5 mg/L
same,GN370 MIC,S. maltophilia [3]; XDR S. maltophilia isolate AU36888,0.25 mg/L
same,GN370 MIC,S. maltophilia [3]; XDR S. maltophilia isolate AU37239,1 mg/L
same,GN370 MIC,S. maltophilia [3]; XDR S. maltophilia isolate AU37260,0.5 mg/L
same,GN370 MIC,S. maltophilia [3]; XDR S. maltophilia isolate AU37689,0.25 mg/L
same,GN370 MIC,S. maltophilia [3]; XDR S. maltophilia isolate AU37737,2 mg/L
same,MIC50,S. maltophilia [3]; XDR isolates of S. maltophilia,1 mg/L
same,MIC Range,"S. maltophilia [3]; XDR isolates of S. maltophilia, in µg/mL",0.03125-2
same,activity (MIC) against S. maltophilia isolates,"S. maltophilia [3]; all tested isolates, Tables 8-12",highly active
same,GN370 MIC50,S. maltophilia [3]; [10],0.5 mg/L
same,GN370 MIC90,S. maltophilia [3]; [10],2 mg/L
same,GN370 MIC Range,"S. maltophilia [3]; carbapenem-resistant S. maltophilia isolates (n = 21), in µg/mL",0.03-2
same,MIC50,A. ruhlandii,2 mg/L
same,MIC90,A. ruhlandii,> 32 mg/L
same,MBEC50,B. cenocepacia,256 µg/mL
same,MIC50,P. apista; P. apista isolates,> 32 mg/L
same,MIC90,P. apista; P. apista isolates,> 32 mg/L
same,MIC50,P. apista; [11],>64 mg/L
same,MIC90,P. apista; [11],>64 mg/L
same,MIC Range,P. apista; [11],>64 mg/L
